Results published in the DeepSol protein solubility set.

Experiment: soluble on expression in E. coli; label from the status in PepcDB or PDB records

Row | Sequence | soluble on expression in E. coli
1 | MSQSTSSEGSGPAAKIARKNSPENDPETAEMFIVDEITDMRYSTTCRQLQFLVKWAIPGSEMTWQPLDDFPFGLNHFSILDYRKDHEEKYEACLQKQRRSKVMKDDDRSWNVSRNSNRSRNRSKSSSKPAQRTEPMTQREKFDAILQISEISLEKQYKLTNKKVPRRSQFTDPDAPKKKSKGARHYRDQNLKTLFKSSLIRKYRKPQESDDDLEPDVAQDSPENTPAPPTKSPESSGFSENLENLGANTPSPSPDFEEEHLEKKPETGNLTENRPKRVYSHETAESMENYAKLLLYTAFDTKSWETLGGHIKNGFRLSFVCSNGLTIIENVVELNKNLNKFSDSRESRMVADLFELLLKKGVEFDEKTLPPTMCAAVRSTRYDIRRDFRCLHNQYIDKRPRMCEWFSATGGGGSCGTTEICTFWNNDAGYLPNTHQRSKFHVDLSEFTGNNLGLLAFSMAWHEDFIDNNSGGPEIVKNNRFNAHIDVPCFTLWMNGKMCEKLENSHGLSIFRPLGTVLDVNELKIKITEHSSRFVAILPVFNLNSDWKNCFFPLENQ | not soluble
2 | MSQTEPPEDLMQYEAMAQDALRGVVKAALKKAAAPGGLPEPHHLYITFKTKAAGVSGPQDLLSKYPDEMTIVLQHQYWDLAPGETFFSVTLKFGGQPKRLSVPYAALTRFYDPSVQFALQFSAPEIIEDEPEPDPEPEDKANQGASGDEGPKIVSLDQFRKKLEHHHHHH | soluble
3 | MSRITQVHRILEQKHLDAIIILSDYNRRYLSGFTGTSGALIISKDKQYLITDFRYIDQATKQAPNYEIINRKSTIIGEIKELLHQENFENVGFEGHHVSYDTYLELNKSRISLISISNTVDKIRDVKDADEIALIQKAANIVDETYEYILTVVKAGMTEKELKAILESKMLELGADGPSFDTIVASGHRGALPHGVASDKIIEKGDMITLDFGAYYNGYCSDITRTFAIGEPDPKLKEIYQIVLESQMKAINEIRPGMTGAEADAISRNYLESKGYGKEFGHSLGHGIGLEIHEGPMLARTIQDKLQVNNCVTVEPGVYIEGLGGIRIEDDILITENGCQVFTKCTKDLIVLT | not soluble
4 | MSRKTLVDTPITPQSSIGHILRAQFALQNQLPEDKPKTIGFNEAENMKLYELYSGRREEYHSTRPSGQRNEEVPMDTLAREWATEITSMGFAERTPAQIKQRIRDMRKFSRKHAHKLGITNMNAGQELERYAEFSWAEPKRRSRGPVPDWMSGLAEIMMSEQDTKADDADSASDIMEATYGPKAKRLKLQRTEMQLHQLQLHLDMKQRELKQEREKEEGNGNDEQEEREKRDVSPETLLIEKKLRLADAKLHTEHLKQQVSIP | not soluble
5 | MSRLRVFRQTGWFIAGLMTGLPATAAPAEASSMAGVAVAVATTTPPDATATLQAMQSCRRESAALERLDCYDHLLAPLSPSGFDGALVKAGFVGEAWTRATEQEKRREGNTTELLVTQVPGERPTVVITTPAIGHVPPRPVLMFSCVDNITRMQVALMHPLDVHDIAVTLNADSRALRSHWFVRENGTLLESSRGLSGIDEIKQLFGAKTLTVDTGADNAAGKLTFNIDGLARAIAPLRDACHWAGE | not soluble
6 | MSRPFTGATLCTTIAPHCSRTTAMTTLPAASPEALATSQALCGRISQAIAEAGGWIPFSHYMELALYAPGMGYYAAGSRKLGEDGDFVTAPELTPLFGQSLARQLAELLPQTAGAVYEFGAGTGKLAIDLLAELKALNQLPAKYVILDLSPDLIDRQRQNIRAALPHLADRVEWASSLPDAIDGIVIGNELLDAMPCEMVFRDEDRRLRQRGVTVRDGALCYEDRDFADSRLAELAAQLLPDIPRYETEISLANRAFIATVAGALTRGAILMIDYGHAASEYYHPERSMGTLLGHYRHHTVQDPFYLPGLMDLTCHVDFTAVAQSGIDAGLDLIGYTSQAQFLVNCGLIERLQTLDADDVKAYLPIAKAAQRLLSPQEMGETFKAIGFGKGVSIDWLGFARGDRCYTLLEHHHHHH | soluble
7 | MSRQEVGYPFHLGRTLKLPQDPPGMAAIYLQSCSGGLFAGETLHLQLHAGPHTQVHVSTGAATVAHSMLEQPARQTVTLIAETGALLEYLPMATILFPQARLHSVVNVTLHPNARVMLCDAFCLHVPPGSAGLPGFYRADLHIRCPAGTLLAGDRLALTGADLQRRLPGVSAELQALATFMLVGQDLPVDELKRALRDALRVVPESYLGVSALPNDCGVSVRIMTADAVALRSALHLAWACARQQLTGIAPRVRRKLEHHHHHH | not soluble
8 | MSRRLRRTKIVTTLGPATDRDNNLEKVIAAGANVVRMNFSHGSPEDHKMRADKVREIAAKLGRHVAILGDLQGPKIRVSTFKEGKVFLNIGDKFLLDANLGKGEGDKEKVGIDYKGLPADVVPGDILLLDDGRVQLKVLEVQGMKVFTEVTVGGPLSNNKGINKLGGGLSAEALTEKDKADIKTAALIGVDYLAVSFPRCGEDLNYARRLARDAGCDAKIVAKVERAEAVCSQDAMDDIILASDVVMVARGDLGVEIGDPELVGIQKALIRRARQLNRAVITATQMMESMITNPMPTRAEVMDVANAVLDGTDAVMLSAETAAGQYPSETVAAMARVCLGAEKIPSINVSKHRLDVQFDNVEEAIAMSAMYAANHLKGVTAIITMTESGRTALMTSRISSGLPIFAMSRHERTLNLTALYRGVTPVHFDSANDGVAAASEAVNLLRDKGYLMSGDLVIVTQGDVMSTVGSTNTTRILTVE | soluble
9 | MSRRSNRTINLPAPYLKRIWLDPSQVHDREAYPFCLPIFPDDFELSFDAAITIIVGENGTGKSTILEGIAALAGYDDAGGGKGYMPVDHSDAREKMGGQLSKALRASWLPKITNGWFFRAESFFSVARYLDKAARDAGQVGPDFLSHSHGEGFLRFFEERCQRQGIFIFDEPESALSPARQIEFLKLLRRMDDSRICQVIMATHSPMLMAYPNAKLLRLGKYGLEPVTVEETDHYRLMREFCDDPRGFVEATLAELEHHHHHH | soluble
10 | MSRTEGSHEAEQDLTMIVGTYTSGDSKGLYSFRFNEENGTATALSEAEVENPSYLVPSADGKFIYAVSEFSNEQAAANAFAFNKEEGTFRLLNTQKTGGEDPCYIITNGSNVVTANYSGGSISVFPIDKDGSLLPASEVVKFKGSGADKERQEKPHLHCVRITPDGKYLFADDLGTDQIHKFIVNPNAKADNEDVFLKEGSPASYKVEAGSGPRHLTFAPNGSYAYLINELSGTVIAFEYNDGELKEIQTIAADTVGAKGSGDIHISPDGKFLYASNRLKADGLAIFSIHPENGMLTKVGYQLTGIHPRNFIITPNGKYLLVACRDSNVIQVYERDTDTGLLTDIRKDIKVDKPVCIKFVPLEHHHHHH | soluble
11 | MSSAHNAYNAGIMQKTGKAFADEFFAEENQVVHESNAVVLVLMKSDEIDAIIEDIVLKGGKAKNPSIVVEDKAGFWWIKADGAIEIDAAEAGELLGKPFSVYDLLINVSSTVGRAYTLGTKFTITSELMGLDRALTDI | soluble
12 | MSSETLEFSGCNFFRIRLAYSILSGRPIRIINIRKNDDRPGIRDFESKLIGLLEKVTNGTKVEISRTGTQVIFRPGMITGGVVNLDCGTERCISYFLEPLLLLSPFCKVPMVIKLKGVTNAPGEISVDGMKASWLKVYNKFVLNDEKLDIKIQARGLKPEGGGVVVFTAPIVKTLRPVKRQQVGKVCKIRGQAYVTKVTPSLAYRMIDAAKKAMHGYISDVYITVDQRKGDAGGASPGYGLFLTAETTEGVIYQAEAISRPKGESGVPILPEDIGIEAGHALLQQIYMGGALDSSAQILASTFMTLCPKDVSHFLYGPLPMYSVHALRHLKQFFEIEFKMEDFKKTLKEEEADLKTGSADKAMVTAVGVGYSNLNKTIL | not soluble
13 | MSSGSTSTTPRAWLSGSVVTGKCCLLVIRKGQRPGVPFPAPCASGVAVTGRPPCATGGRGRTRPPTGVGEDTKDSCGKGIADETPRRHHGGPATRKAGRATGRSERGHSRGTRPAELMPIPRSPVVVALGAFEISNES | not soluble
14 | MSSHHHHHHSSGLVPRGSHMASMSDSEVNQEAKPEVKPEVKPETHINLKVSDGSSEIFFKIKKTTPLRRLMEAFAKRQGKEMDSLRFLYDGIRIQADQTPEDLDMEDNDIIEAHREQIGGSLMIIENSHVKKDDIWPSGGQMTVKDLTAKYTEGGNAILENISFSISPGQRVGLLGRTGSGKSTLLSAFLRLLNTEGEIQIDGVSWDSITLQQWRKAFGVIPQKVFIFSGTFRKNLDPYEQWSDQEIWKVADEVGLRSVIEQFPGKLDFVLVDGGCVLSHGHKQLMCLARSVLSKAKILLLDQPSAHLDPVTYQIIRRTLKQAFADCTVILCEHRIEAMLECQQFLVIEENKVRQYDSIQKLLNERSLFRQAISPSDRVKLFPHRNSSK | soluble
15 | MSSMSESDSYQSSQLTSEPDLVALDAKIMAVMDGTEELEREIGKMMALQQAISDYKKSHQHRTQRTKEKLTDMSKDLTITGKNIVKSCEERLKQISDVTEPYINSGISSVEDHTSSVVERCIQMLGAISGLGGAMKKTEGLSSKVLEHHRKLAIMEHKQADAISRYEKAVGVQKLVREHPAGDPLHELANLLGIFLALQQSPNTSEYYKKVFDGFGGRVTALFAEIDRPKTAKSLATRSGMSTLSSMSNGEINLESIKDNTEIPVDTCQ | not soluble
16 | MSSNNRKKLLLMGRSGSGKSSMRSIIFSNYSAFDTRRLGATIDVEHSHLRFLGNMTLNLWDCGGQDVFMENYFTKQKDHIFQMVQVLIHVFDVESTEVLKDIEIFAKALKQLRKYSPDAKIFVLLHKMDLVQLDKREELFQIMMKNLSETSSEFGFPNLIGFPTSIWDESLYKAWSQIVCSLIPNMSNHQSNLKKFKEIMNALEIILFERTTFLVICSSNGENSNENHDSSDNNNVLLDPKRFEKISNIMKNFKQSCTKLKSGFKTLILNNNIYVSELSSNMVCFIVLKDMNIPQELVLENIKKAKEFFQ | soluble
17 | MSSNPLRFFVLTIFPHIISCYSEYGIVKQAIKKGKVEVYPIDLREFAPKGQVDDVPYGGLPGMVLKPEPIYEAYDYVVENYGKPFVLITEPWGEKLNQKLVNELSKKERIMIICGRYEGVDERVKKIVDMEISLGDFILSGGEIVALAVIDAVSRVLPGVLSEPQSIQEDSFQNRWLGYPVYTRPREYRGMKVPEELLSGHHKLIELWKLWHRIENTVKKRPDLIPKDLTELEKDILNSILSGKSFKEWLKEHKHLLLEHHHHHH | not soluble
18 | MSSPYILVLYYSRHGATAEMARQIARGVEQGGFEARVRTVPAVSTECEAVAPDIPAEGALYATLEDLKNCAGLALGSPTRFGNMASPLKYFLDGTSSLWLTGSLVGKPAAVFTSTASLHGGQETTQLSMLLPLLHHGMLVLGIPYSEPALLETRGGGTPYGASHFAGADGKRSLDEHELTLCRALGKRLAETAGKLGS | soluble
19 | MSSRNNPARVAIVMGSKSDWATMQFAAEIFEILDVPHHVEVVSAHRTPDKLFSFAETAEENGYQVIIAGAGGAAHLPGMIAAKTLVPVLGVPVQSAALSGVDSLYSIVQMPRGIPVGTLAIGKAGAANAALLAAQILAQHDAELHQRIADWRKAQTDEVLENPDPRGTL | not soluble
20 | MSSSHKSWNSIYEFTVKDINGVDVSLEKYRGHVCLIVNVACKCGATDKNYRQLQEMHTRLVGKGLRILAFPCNQFGGQEPWAEAEIKKFVTEKYGVQFDMFSKIKVNGSDADDLYKFLKSRQHGTLTNNIKWNFSKFLVDRQGQPVKRYSPTTAPYDIEGDIMELLEKK | soluble
